Measurements from PMC4344342.

Molecular target: RpL26-eGFP (UniProt P61254)
Assay: fluorescence cross-correlation spectroscopy (FCCS); live HeLa cells co-transfected with the two labelled proteins, two-photon excitation at 1020 nm, green and red channels, cytoplasm

Substance: NCp7-mCherry (natural protein)
- percent of NCp7-mCherry molecules that cross-correlate with RpL26-eGFP: 40 to 70%
